Results on one substance are retold here after article PMC10848957.

For this experiment, the target named is FakA_M, central zinc finger domain of Streptococcus suis FakA (Streptococcus suis serotype 2, strain 05ZYH33). Briefly: cross-linking.

For orientation: stoichiometry N means the number of molecules, sites or subunits per partner or assembly. The substance “FakA_M, central zinc finger domain of Streptococcus suis FakA (domain or fragment)” displayed a stoichiometry N of 2.
